# B1: His-tagged Akirin (natural protein, Drosophila melanogaster, UniProt Q9VS59 1-201, looked up)
# chain: MACATLKRALDWESMNQRPPKRRRCNPFGQAGSNAGPASPSRDGPSTSAGLPHTPSNRFAKDSTEPSPFSESSLAKMSPDKMAESLCNEIKRLHKRKQLPITSSALERMQDSESSGSEMGPESPRRPDSPQNLMRHGEKALFTFKQVQLICESMIKERENQLRERYESVLTTKLAEQYDAFVKFTYDQIQRRYEAAPSYLS
# Biological target: T1, Flag-tagged RelishΔS29-S45 (Drosophila melanogaster, UniProt Q94527 1-971, ΔS29-S45)
# T1 sequence (looked up): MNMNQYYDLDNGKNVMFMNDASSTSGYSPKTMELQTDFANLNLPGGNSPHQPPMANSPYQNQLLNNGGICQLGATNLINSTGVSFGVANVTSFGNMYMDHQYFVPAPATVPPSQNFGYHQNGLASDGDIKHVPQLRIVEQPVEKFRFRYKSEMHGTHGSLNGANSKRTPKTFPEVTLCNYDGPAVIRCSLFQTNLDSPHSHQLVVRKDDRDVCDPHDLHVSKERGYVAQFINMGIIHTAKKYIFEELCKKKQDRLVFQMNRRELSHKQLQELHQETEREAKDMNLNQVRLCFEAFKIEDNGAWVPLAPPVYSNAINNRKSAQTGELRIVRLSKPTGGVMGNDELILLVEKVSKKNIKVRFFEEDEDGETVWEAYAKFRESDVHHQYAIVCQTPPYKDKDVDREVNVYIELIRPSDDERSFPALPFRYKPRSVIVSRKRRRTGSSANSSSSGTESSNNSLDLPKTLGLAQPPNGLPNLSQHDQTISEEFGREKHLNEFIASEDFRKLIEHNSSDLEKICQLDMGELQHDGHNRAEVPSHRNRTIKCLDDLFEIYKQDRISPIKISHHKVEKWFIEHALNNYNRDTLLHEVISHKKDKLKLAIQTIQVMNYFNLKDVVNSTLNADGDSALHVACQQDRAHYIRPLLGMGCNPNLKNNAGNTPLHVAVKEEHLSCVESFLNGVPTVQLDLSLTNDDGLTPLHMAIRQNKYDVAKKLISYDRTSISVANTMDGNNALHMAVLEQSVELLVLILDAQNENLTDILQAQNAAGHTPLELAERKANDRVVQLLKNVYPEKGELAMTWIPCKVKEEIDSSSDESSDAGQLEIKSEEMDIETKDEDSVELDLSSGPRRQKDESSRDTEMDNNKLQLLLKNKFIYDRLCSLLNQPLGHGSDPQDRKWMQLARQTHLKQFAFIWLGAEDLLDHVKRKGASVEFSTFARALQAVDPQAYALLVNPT
# Experiment: co-IP
binder,measurement,value
B1,binding result,binds

# — paper PMC4253524 (The EMBO Journal, 2014)
